Columns and labels:
Saccharomyces cerevisiae [1] = experiment: protein stability index of tFT-peptide fusion in wild type (PSI (0-1 scale)); higher = more stable (slower turnover); conditions: genetic background: wild type
Experimental: (§1)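 MPS profiling in S. cerevisiae of two library types built from selected 12-aa C-degron peptides (IN1, IN2, LN1, LN3, VN2, R1-R5, W1-W3, Atg1 and Rpa12 C-termini): saturation mutagenesis libraries and C-terminal +1 capping libraries (13 aa). Each peptide is fused to the C-terminus of a sfGFP-mCherry timer, after a GGGS linker. Cells are FACS-sorted into 8 mCherry/sfGFP bins and sequenced. PSI runs from 0 (unstable) to 1 (stable), measured once in wild type and in the das1Δ or doa10Δ background.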

Saccharomyces cerevisiae [2] = experiment: protein stability index of tFT-peptide fusion in deletion strain of DAS1 (PSI (0-1 scale)); higher = more stable (slower turnover)
Experimental: as §1
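Wherever protein stability index of tFT-peptide fusion in deletion strain of DAS1 is given: PSI is a weighted mean of each variant's read distribution over the sorted stability bins, computed only for variants having over 10 reads in total.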
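Wherever protein stability index of tFT-peptide fusion in wild type is given: PSI derived as read-weighted mean over the 8 sorting bins, only variants exceeding 10 total reads kept, mCherry placed adjacent to the peptide and sfGFP distal.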

Sequence: ARWRVPLWRGAS
- protein stability index (Saccharomyces cerevisiae [1]): 0.646
- protein stability index (Saccharomyces cerevisiae [2]): 0.684

Sequence: ARWRFGLWRGAS
- protein stability index (Saccharomyces cerevisiae [1]): 0.581
- protein stability index (Saccharomyces cerevisiae [2]): 0.698

Sequence: PDKRNNLIKLLN
- protein stability index (Saccharomyces cerevisiae [1]): 0.155
- protein stability index (Saccharomyces cerevisiae [2]): 0.589

Sequence: PDKINHLIKLLN
- protein stability index (Saccharomyces cerevisiae [1]): 0.135
- protein stability index (Saccharomyces cerevisiae [2]): 0.578

Sequence: CRSCGYKFRTNN
- protein stability index (Saccharomyces cerevisiae [1]): 0.243
- protein stability index (Saccharomyces cerevisiae [2]): 0.708

Sequence: CTICGYKFRTNN
- protein stability index (Saccharomyces cerevisiae [1]): 0.27
- protein stability index (Saccharomyces cerevisiae [2]): 0.67

Sequence: PSLAASQWRVVG
- protein stability index (Saccharomyces cerevisiae [1]): 0.184
- protein stability index (Saccharomyces cerevisiae [2]): 0.668

Sequence: PDKRNHLIKLLNR
- protein stability index (Saccharomyces cerevisiae [1]): 0.652
- protein stability index (Saccharomyces cerevisiae [2]): 0.668

Sequence: PDKRNHLIKLLA
- protein stability index (Saccharomyces cerevisiae [1]): 0.114
- protein stability index (Saccharomyces cerevisiae [2]): 0.57

Sequence: VRGAVGGWHLVG
- protein stability index (Saccharomyces cerevisiae [1]): 0.286
- protein stability index (Saccharomyces cerevisiae [2]): 0.671

Sequence: CTRCGYKFRTNN
- protein stability index (Saccharomyces cerevisiae [1]): 0.231
- protein stability index (Saccharomyces cerevisiae [2]): 0.699

Sequence: VRGAVGGWRLKG
- protein stability index (Saccharomyces cerevisiae [1]): 0.607
- protein stability index (Saccharomyces cerevisiae [2]): 0.673

Sequence: RLRQPLPVQFLN
- protein stability index (Saccharomyces cerevisiae [1]): 0.0588
- protein stability index (Saccharomyces cerevisiae [2]): 0.593

Sequence: ARWRVGLWPGAS
- protein stability index (Saccharomyces cerevisiae [1]): 0.71
- protein stability index (Saccharomyces cerevisiae [2]): 0.689

Sequence: ARWRVGLNRGAS
- protein stability index (Saccharomyces cerevisiae [1]): 0.68
- protein stability index (Saccharomyces cerevisiae [2]): 0.668

Sequence: KKHKKGTKQKIN
- protein stability index (Saccharomyces cerevisiae [1]): 0.0759
- protein stability index (Saccharomyces cerevisiae [2]): 0.608

Sequence: PDKRDHLIKLLN
- protein stability index (Saccharomyces cerevisiae [1]): 0.105
- protein stability index (Saccharomyces cerevisiae [2]): 0.599

Sequence: ARWPVGLWRGAS
- protein stability index (Saccharomyces cerevisiae [1]): 0.399
- protein stability index (Saccharomyces cerevisiae [2]): 0.703

Sequence: PSLMASFWRVVG
- protein stability index (Saccharomyces cerevisiae [1]): 0.131
- protein stability index (Saccharomyces cerevisiae [2]): 0.707

Sequence: LVILRQKMNHQN
- protein stability index (Saccharomyces cerevisiae [1]): 0.135
- protein stability index (Saccharomyces cerevisiae [2]): 0.675

Sequence: KKHKKGQKQKINS
- protein stability index (Saccharomyces cerevisiae [1]): 0.126
- protein stability index (Saccharomyces cerevisiae [2]): 0.668

Sequence: CLIQPLPVQFLN
- protein stability index (Saccharomyces cerevisiae [1]): 0.103
- protein stability index (Saccharomyces cerevisiae [2]): 0.548

Sequence: RLIQPLPVQFLNF
- protein stability index (Saccharomyces cerevisiae [1]): 0.462
- protein stability index (Saccharomyces cerevisiae [2]): 0.659

Sequence: PDKVNHLIKLLN
- protein stability index (Saccharomyces cerevisiae [1]): 0.129
- protein stability index (Saccharomyces cerevisiae [2]): 0.658

Sequence: LVVYLSCVACING
- protein stability index (Saccharomyces cerevisiae [1]): 0.0204
- protein stability index (Saccharomyces cerevisiae [2]): 0.0326

Sequence: VRGAVGPWRLVG
- protein stability index (Saccharomyces cerevisiae [1]): 0.138
- protein stability index (Saccharomyces cerevisiae [2]): 0.687

Sequence: RLIQLLPVQFLN
- protein stability index (Saccharomyces cerevisiae [1]): 0.0564
- protein stability index (Saccharomyces cerevisiae [2]): 0.635

Sequence: LVVYLSCLACIN
- protein stability index (Saccharomyces cerevisiae [1]): 0.0182
- protein stability index (Saccharomyces cerevisiae [2]): 0.0537

Sequence: CTGCGYKFRTNN
- protein stability index (Saccharomyces cerevisiae [1]): 0.231
- protein stability index (Saccharomyces cerevisiae [2]): 0.678

Sequence: LVVYLSCIACIN
- protein stability index (Saccharomyces cerevisiae [1]): 0.0141
- protein stability index (Saccharomyces cerevisiae [2]): 0.0218

Sequence: ARYRVGLWRGAS
- protein stability index (Saccharomyces cerevisiae [1]): 0.567
- protein stability index (Saccharomyces cerevisiae [2]): 0.668

Sequence: HRGAVGGWRLVG
- protein stability index (Saccharomyces cerevisiae [1]): 0.172
- protein stability index (Saccharomyces cerevisiae [2]): 0.665

Sequence: VRGMVGGWRLVG
- protein stability index (Saccharomyces cerevisiae [1]): 0.161
- protein stability index (Saccharomyces cerevisiae [2]): 0.683

Sequence: LVVYLSCVATIN
- protein stability index (Saccharomyces cerevisiae [1]): 0.0174
- protein stability index (Saccharomyces cerevisiae [2]): 0.0278

Sequence: FSTRWTFRYWVN
- protein stability index (Saccharomyces cerevisiae [1]): 0.0442
- protein stability index (Saccharomyces cerevisiae [2]): 0.62

Sequence: ARWRVGLSRGAS
- protein stability index (Saccharomyces cerevisiae [1]): 0.669
- protein stability index (Saccharomyces cerevisiae [2]): 0.695

Sequence: LKILRQQMNHQN
- protein stability index (Saccharomyces cerevisiae [1]): 0.206
- protein stability index (Saccharomyces cerevisiae [2]): 0.584

Sequence: PSLAANFWRVVG
- protein stability index (Saccharomyces cerevisiae [1]): 0.159
- protein stability index (Saccharomyces cerevisiae [2]): 0.689

Sequence: VRGAVGCWRLVG
- protein stability index (Saccharomyces cerevisiae [1]): 0.162
- protein stability index (Saccharomyces cerevisiae [2]): 0.69

Sequence: CTSCGYKFRTNK
- protein stability index (Saccharomyces cerevisiae [1]): 0.689
- protein stability index (Saccharomyces cerevisiae [2]): 0.704

Sequence: PDKRNHTIKLLN
- protein stability index (Saccharomyces cerevisiae [1]): 0.176
- protein stability index (Saccharomyces cerevisiae [2]): 0.582

Sequence: AFWRVGLWRGAS
- protein stability index (Saccharomyces cerevisiae [1]): 0.496
- protein stability index (Saccharomyces cerevisiae [2]): 0.704

Sequence: KKHKKGQKQLIN
- protein stability index (Saccharomyces cerevisiae [1]): 0.335
- protein stability index (Saccharomyces cerevisiae [2]): 0.627

Sequence: HTSCGYKFRTNN
- protein stability index (Saccharomyces cerevisiae [1]): 0.215
- protein stability index (Saccharomyces cerevisiae [2]): 0.677

Sequence: PSEAASFWRVVG
- protein stability index (Saccharomyces cerevisiae [1]): 0.175
- protein stability index (Saccharomyces cerevisiae [2]): 0.702

Sequence: PDKRNHLGKLLN
- protein stability index (Saccharomyces cerevisiae [1]): 0.428
- protein stability index (Saccharomyces cerevisiae [2]): 0.593

Sequence: VRGAVGRWRLVG
- protein stability index (Saccharomyces cerevisiae [1]): 0.159
- protein stability index (Saccharomyces cerevisiae [2]): 0.669

Sequence: PSLAASFWEVVG
- protein stability index (Saccharomyces cerevisiae [1]): 0.697
- protein stability index (Saccharomyces cerevisiae [2]): 0.712

Sequence: NRWRVGLWRGAS
- protein stability index (Saccharomyces cerevisiae [1]): 0.454
- protein stability index (Saccharomyces cerevisiae [2]): 0.685

Sequence: PDKRNSLIKLLN
- protein stability index (Saccharomyces cerevisiae [1]): 0.163
- protein stability index (Saccharomyces cerevisiae [2]): 0.723

Sequence: LVVYLSCVACIR
- protein stability index (Saccharomyces cerevisiae [1]): 0.0163
- protein stability index (Saccharomyces cerevisiae [2]): 0.0325

Sequence: KKHKKGQKHKIN
- protein stability index (Saccharomyces cerevisiae [1]): 0.228
- protein stability index (Saccharomyces cerevisiae [2]): 0.588

Sequence: FSMRWTFRYWGN
- protein stability index (Saccharomyces cerevisiae [1]): 0.19
- protein stability index (Saccharomyces cerevisiae [2]): 0.547

Sequence: CTQCGYKFRTNN
- protein stability index (Saccharomyces cerevisiae [1]): 0.25
- protein stability index (Saccharomyces cerevisiae [2]): 0.697

Sequence: FSMRWTFRYWWN
- protein stability index (Saccharomyces cerevisiae [1]): 0.271
- protein stability index (Saccharomyces cerevisiae [2]): 0.497

Sequence: KKHHKGQKQKIN
- protein stability index (Saccharomyces cerevisiae [1]): 0.0513
- protein stability index (Saccharomyces cerevisiae [2]): 0.588

Sequence: RLIQPLPVQFPN
- protein stability index (Saccharomyces cerevisiae [1]): 0.622
- protein stability index (Saccharomyces cerevisiae [2]): 0.605

Sequence: CTSCGYKIRTNN
- protein stability index (Saccharomyces cerevisiae [1]): 0.261
- protein stability index (Saccharomyces cerevisiae [2]): 0.704

Sequence: LKILIQKMNHQN
- protein stability index (Saccharomyces cerevisiae [1]): 0.217
- protein stability index (Saccharomyces cerevisiae [2]): 0.695

Sequence: PDKRNHLAKLLN
- protein stability index (Saccharomyces cerevisiae [1]): 0.0907
- protein stability index (Saccharomyces cerevisiae [2]): 0.547

Sequence: VRVAVGGWRLVG
- protein stability index (Saccharomyces cerevisiae [1]): 0.111
- protein stability index (Saccharomyces cerevisiae [2]): 0.652

Sequence: KKHKKGQKQCIN
- protein stability index (Saccharomyces cerevisiae [1]): 0.26
- protein stability index (Saccharomyces cerevisiae [2]): 0.585

Sequence: ARWRVGLWRGASQ
- protein stability index (Saccharomyces cerevisiae [1]): 0.661
- protein stability index (Saccharomyces cerevisiae [2]): 0.646

Sequence: ARWRVGLWREAS
- protein stability index (Saccharomyces cerevisiae [1]): 0.169
- protein stability index (Saccharomyces cerevisiae [2]): 0.668

Sequence: PDKRNDLIKLLN
- protein stability index (Saccharomyces cerevisiae [1]): 0.184
- protein stability index (Saccharomyces cerevisiae [2]): 0.626

Sequence: KKHKKGQKQTIN
- protein stability index (Saccharomyces cerevisiae [1]): 0.362
- protein stability index (Saccharomyces cerevisiae [2]): 0.571

Sequence: ARWRVGLWEGAS
- protein stability index (Saccharomyces cerevisiae [1]): 0.675
- protein stability index (Saccharomyces cerevisiae [2]): 0.658

Sequence: ARWRVGLWRGASI
- protein stability index (Saccharomyces cerevisiae [1]): 0.652
- protein stability index (Saccharomyces cerevisiae [2]): 0.665

Sequence: ARWRVGLWRGASD
- protein stability index (Saccharomyces cerevisiae [1]): 0.688
- protein stability index (Saccharomyces cerevisiae [2]): 0.686

Sequence: LVVYLRCVACIN
- protein stability index (Saccharomyces cerevisiae [1]): 0.0199
- protein stability index (Saccharomyces cerevisiae [2]): 0.0318

Sequence: CTSCGYQFRTNN
- protein stability index (Saccharomyces cerevisiae [1]): 0.496
- protein stability index (Saccharomyces cerevisiae [2]): 0.692

Sequence: VRGAVGGPRLVG
- protein stability index (Saccharomyces cerevisiae [1]): 0.661
- protein stability index (Saccharomyces cerevisiae [2]): 0.669

Sequence: AKWRVGLWRGAS
- protein stability index (Saccharomyces cerevisiae [1]): 0.392
- protein stability index (Saccharomyces cerevisiae [2]): 0.692

Sequence: CTSCGYKFRTHN
- protein stability index (Saccharomyces cerevisiae [1]): 0.325
- protein stability index (Saccharomyces cerevisiae [2]): 0.717

Sequence: LVVYVSCVACIN
- protein stability index (Saccharomyces cerevisiae [1]): 0.0192
- protein stability index (Saccharomyces cerevisiae [2]): 0.0341

Sequence: ARWRVGLWRPAS
- protein stability index (Saccharomyces cerevisiae [1]): 0.645
- protein stability index (Saccharomyces cerevisiae [2]): 0.691

Sequence: LKILRQKMNHPN
- protein stability index (Saccharomyces cerevisiae [1]): 0.672
- protein stability index (Saccharomyces cerevisiae [2]): 0.688

Sequence: RLIQPLPVMFLN
- protein stability index (Saccharomyces cerevisiae [1]): 0.0639
- protein stability index (Saccharomyces cerevisiae [2]): 0.564

Sequence: ARWTVGLWRGAS
- protein stability index (Saccharomyces cerevisiae [1]): 0.495
- protein stability index (Saccharomyces cerevisiae [2]): 0.692

Sequence: QRWRVGLWRGAS
- protein stability index (Saccharomyces cerevisiae [1]): 0.345
- protein stability index (Saccharomyces cerevisiae [2]): 0.683

Sequence: VRAAVGGWRLVG
- protein stability index (Saccharomyces cerevisiae [1]): 0.14
- protein stability index (Saccharomyces cerevisiae [2]): 0.681

Sequence: PQKRNHLIKLLN
- protein stability index (Saccharomyces cerevisiae [1]): 0.113
- protein stability index (Saccharomyces cerevisiae [2]): 0.597

Sequence: PSLAASFWRVYG
- protein stability index (Saccharomyces cerevisiae [1]): 0.174
- protein stability index (Saccharomyces cerevisiae [2]): 0.691

Sequence: VRGAVGGWRLVV
- protein stability index (Saccharomyces cerevisiae [1]): 0.16
- protein stability index (Saccharomyces cerevisiae [2]): 0.675

Sequence: PSLAASFWRVVGE
- protein stability index (Saccharomyces cerevisiae [1]): 0.672
- protein stability index (Saccharomyces cerevisiae [2]): 0.668

Sequence: ARGRVGLWRGAS
- protein stability index (Saccharomyces cerevisiae [1]): 0.432
- protein stability index (Saccharomyces cerevisiae [2]): 0.685

Sequence: FSMRWTFFYWVN
- protein stability index (Saccharomyces cerevisiae [1]): 0.104
- protein stability index (Saccharomyces cerevisiae [2]): 0.44

Sequence: WKHKKGQKQKIN
- protein stability index (Saccharomyces cerevisiae [1]): 0.135
- protein stability index (Saccharomyces cerevisiae [2]): 0.546

Sequence: LVVYASCVACIN
- protein stability index (Saccharomyces cerevisiae [1]): 0.023
- protein stability index (Saccharomyces cerevisiae [2]): 0.0371

From the supplement of paper PMC10724198
